Data reported in patent US20240117038A1 (Ablynx, published 2024).

How the values were obtained:
[1] = target: T1, human CX3CR1 (human, UniProt P49238 1-355); assay: cell-based or functional assay
T1 sequence: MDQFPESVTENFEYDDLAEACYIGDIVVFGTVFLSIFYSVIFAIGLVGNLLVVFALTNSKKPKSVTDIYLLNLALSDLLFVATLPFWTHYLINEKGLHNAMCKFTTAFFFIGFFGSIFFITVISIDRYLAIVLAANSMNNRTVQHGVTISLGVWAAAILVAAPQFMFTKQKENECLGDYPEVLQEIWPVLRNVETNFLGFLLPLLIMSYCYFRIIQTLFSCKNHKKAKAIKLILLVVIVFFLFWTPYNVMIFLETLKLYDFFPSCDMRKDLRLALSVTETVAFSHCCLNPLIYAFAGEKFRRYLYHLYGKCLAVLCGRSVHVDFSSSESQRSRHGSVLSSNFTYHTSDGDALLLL

[2] = target: T2, mouse CX3CR1 (mouse, UniProt Q9Z0D9 1-354); assay: cell-based or functional assay
T2 sequence (looked up): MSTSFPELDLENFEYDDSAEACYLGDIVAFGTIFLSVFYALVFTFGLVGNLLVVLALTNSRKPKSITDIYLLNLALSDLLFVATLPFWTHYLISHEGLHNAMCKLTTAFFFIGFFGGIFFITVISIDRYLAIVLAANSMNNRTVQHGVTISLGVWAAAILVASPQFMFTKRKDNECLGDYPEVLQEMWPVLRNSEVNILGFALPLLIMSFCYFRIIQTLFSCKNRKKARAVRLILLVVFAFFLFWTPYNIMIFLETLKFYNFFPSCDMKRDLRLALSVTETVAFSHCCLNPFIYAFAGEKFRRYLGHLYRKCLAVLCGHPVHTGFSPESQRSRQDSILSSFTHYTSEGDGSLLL

[3] = target: T1, human CX3CR1; assay: flow cytometry, AF-647 labelled soluble CX3CL1 on transiently transfected HEK293T cells, human CX3CR1 WT
[4] = target: T3, human CX3CR1 T280M (human, UniProt P49238 1-355); assay: flow cytometry, AF-647 labelled soluble CX3CL1 on transiently transfected HEK293T cells, human CX3CR1 T280M
T3 construct: Transiently transfected in HEK293T cells (pcDNA3.1); also called huCX3CR1 variant T280M (Rs3732378)
T3 sequence: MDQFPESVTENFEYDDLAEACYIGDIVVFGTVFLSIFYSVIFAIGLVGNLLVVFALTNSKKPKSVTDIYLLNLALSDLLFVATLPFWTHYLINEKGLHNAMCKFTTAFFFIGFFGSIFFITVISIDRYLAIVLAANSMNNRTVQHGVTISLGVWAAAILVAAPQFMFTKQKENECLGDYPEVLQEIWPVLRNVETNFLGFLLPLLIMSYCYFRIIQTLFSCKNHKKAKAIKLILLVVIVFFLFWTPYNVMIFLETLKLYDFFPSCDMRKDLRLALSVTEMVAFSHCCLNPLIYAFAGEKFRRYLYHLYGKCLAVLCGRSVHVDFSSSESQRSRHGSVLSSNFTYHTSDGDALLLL

[5] = target: T4, human CX3CR1 V249I (human, UniProt P49238 1-355); assay: flow cytometry, AF-647 labelled soluble CX3CL1 on transiently transfected HEK293T cells, human CX3CR1 V249I
T4 construct: Transiently transfected in HEK293T cells (pcDNA3.1); also called huCX3CR1 variant V249I (Rs3732379); printed V2491 in the text
T4 sequence: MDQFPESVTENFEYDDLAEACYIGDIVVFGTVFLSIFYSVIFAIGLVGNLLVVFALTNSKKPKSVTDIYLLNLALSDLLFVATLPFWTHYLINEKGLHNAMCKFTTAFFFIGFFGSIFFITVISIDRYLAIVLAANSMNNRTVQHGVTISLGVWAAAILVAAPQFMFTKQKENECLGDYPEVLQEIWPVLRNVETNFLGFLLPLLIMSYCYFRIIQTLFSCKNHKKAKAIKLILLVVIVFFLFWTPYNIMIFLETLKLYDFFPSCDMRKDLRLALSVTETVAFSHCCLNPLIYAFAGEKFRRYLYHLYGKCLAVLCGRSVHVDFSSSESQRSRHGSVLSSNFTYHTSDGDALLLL

[6] = target: T5, human CX3CR1 V249I/T280M (human, UniProt P49238 1-355); assay: flow cytometry, AF-647 labelled soluble CX3CL1 on transiently transfected HEK293T cells, human CX3CR1 V249I/T280M
T5 construct: Transiently transfected in HEK293T cells (pcDNA3.1); also called huCX3CR1 variant V249I and T280M
T5 chain: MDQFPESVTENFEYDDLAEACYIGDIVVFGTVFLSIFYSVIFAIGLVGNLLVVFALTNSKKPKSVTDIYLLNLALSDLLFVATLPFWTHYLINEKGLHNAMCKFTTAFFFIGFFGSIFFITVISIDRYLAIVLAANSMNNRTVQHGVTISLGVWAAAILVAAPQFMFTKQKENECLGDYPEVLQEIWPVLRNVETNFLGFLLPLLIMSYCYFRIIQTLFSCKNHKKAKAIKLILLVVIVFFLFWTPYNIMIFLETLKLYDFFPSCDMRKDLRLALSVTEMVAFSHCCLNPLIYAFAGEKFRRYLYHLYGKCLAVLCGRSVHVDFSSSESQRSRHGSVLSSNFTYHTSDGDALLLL

B1: human CX3CL1/Fraktalkine (ligand, UniProt P78423 25-339, looked up)
chain: QHHGVTKCNITCSKMTSKIPVALLIHYQQNQASCGKRAIILETRQHRLFCADPKEQWVKDAMQHLDRQAAALTRNGGTFEKQIGEVKPRTTPAAGGMDESVVLEPEATGESSSLEPTPSSQEAQRALGTSPELPTGVTGSSGTRLPPTPKAQDGGPVGTELFRVPPVSTAATWQSSAPHQPGPSLWAEAKTSEAPSTQDPSTQASTASSPAPEENAPSEGQRVWGQGQSPRPENSLEREEMGPVPAHTDAFQDWGPGSMAHVSVVPVSSEGTPSREPVASGSWTPKAEEPIHATMDPQRLGVLITPVPDAQAATR
modifications: labelled with AF647 (in house) in the binding and competition assays; unlabelled in the chemotaxis and pERK assays
notes: Bought protein; also called huCX3CL1; huCX3CL1-AF647
- EC50, ERK phosphorylation in CHO K1 huCX3CR1 cells [1]: 2 nM
- EC50, ERK phosphorylation in CHO K1 mCX3CR1 cells [2]: 2.5 nM
- EC50 [3]: 3.3 nM
- EC50 [4]: 19 nM
- EC50 [5]: 2.1 nM
- EC50 [6]: 4.2 nM
